Results as given in patent publication US20190352423A1 (Genmab, published 2019).
Substitutions are numbered along the chain they refer to. Names and notes keep the numbering of the source.

B1: bsCD63xb12-Duo3 (bispecific antibody, part only; not given: b12 control arm VH and VL, IgG1, V domains shown, part only)
VH: EVQLQQSGPELVKPGASVKMSCKASGYTFTSYVMHWVRQTPGQGLEWIGYITPYNDGTKYNEKFKGKATLTSDKSSSTAYMELSSLTSEDSAVYYCVGGDNYYYAMDYWGQGTSVTVSAA
VL: NIMVTQSPSSLAVSAGEKVTMSCKSSQSVLYSSNQKNYLAWYQQKPGQSPKLLIYWASTRVSGVPDRFTGSGSGTDFTLTISRVQAEDLAVYYCHQYFSSFTFGSGTKLEIKRT
B2: bsCD63xb12-Duo3 with CD63 variant Y46 (bispecific antibody, part only; not given: b12 control arm VH and VL, V domains shown, part only)
VH: B1 VH with Y27H
VL: B1 VL
B3: bsCD63xb12-Duo3 with CD63 variant G76H (bispecific antibody, part only; not given: b12 control arm VH and VL, V domains shown, part only)
VH: B1 VH with G57H
VL: B1 VL
B4: bsHER2xCD63-Duo3 with CD63 variant LS52 (bispecific antibody, part only; not given: HER2 arm (IgG1-153) VH and VL, V domains shown, part only)
VH: B1 VH
VL: B1 VL with S32H
B5: bsCD63xb12-Duo3 with CD63 variant P72H (bispecific antibody, part only; not given: b12 control arm, V domains shown, part only)
VH: B1 VH with P53H
VL: B1 VL
B6: bsHER2xCD63-Duo3 with CD63 variant LN54H (bispecific antibody, part only; not given: HER2 arm (IgG1-153) VH and VL, V domains shown, part only)
VH: B1 VH
VL: B1 VL with N34H
B7: bsCD63xb12-Duo3 with CD63 variant Y79H (bispecific antibody, part only; not given: b12 control arm, V domains shown, part only)
VH: B1 VH with Y60H
VL: B1 VL
B8: bsCD63N74Hxb12-Duo3 (bispecific antibody, part only; not given: b12 control arm, V domains shown, part only)
VH: B1 VH with N55H
VL: B1 VL
B9: bsCD63xb12-Duo3 with CD63 variant T71H (bispecific antibody, part only; not given: b12 control arm, V domains shown, part only)
VH: B1 VH with T52H
VL: B1 VL
B10: bsCD63xb12-Duo3 with CD63 variant LN54H (bispecific antibody, part only; not given: b12 control arm VH and VL, V domains shown, part only)
VH: B1 VH
VL: B1 VL with N34H
B11: bsCD63xb12-Duo3 with CD63 variant LV49H (bispecific antibody, part only; not given: b12 control arm, V domains shown, part only)
VH: B1 VH
VL: B1 VL with V29H
B12: bsCD63xb12-Duo3 with CD63 variant Y121H (bispecific antibody, part only; not given: b12 control arm VH and VL, V domains shown, part only)
VH: B1 VH with Y102H
VL: B1 VL
B13: bsHER2xCD63-Duo3 with CD63 variant T71H (bispecific antibody, part only; not given: HER2 arm (IgG1-153) VH and VL, V domains shown, part only)
VH: B1 VH with T52H
VL: B1 VL
B14: bsHER2xCD63N74H-Duo3 (bispecific antibody, part only; not given: HER2 arm, V domains shown, part only)
VH: B1 VH with N55H
VL: B1 VL
B15: bsHER2xCD63-Duo3 with CD63 variant P72H (bispecific antibody, part only; not given: HER2 arm (IgG1-153) VH and VL, V domains shown, part only)
VH: B1 VH with P53H
VL: B1 VL
B16: bsCD63xb12-Duo3 with CD63 variant LQ47 (bispecific antibody, part only; not given: b12 control arm, V domains shown, part only)
VH: B1 VH
VL: B1 VL with Q27H
B17: bsCD63xb12-Duo3 with CD63 variant LS52 (bispecific antibody, part only; not given: b12 control arm VH and VL, V domains shown, part only)
VH: B1 VH
VL: B1 VL with S32H
B18: bsHER2xCD63-Duo3 with CD63 variant Y121H (bispecific antibody, part only; not given: HER2 arm, V domains shown, part only)
VH: B1 VH with Y102H
VL: B1 VL
B19: bsHER2xCD63-Duo3 with CD63 variant LQ47 (bispecific antibody, part only; not given: HER2 arm, V domains shown, part only)
VH: B1 VH
VL: B1 VL with Q27H
B20: bsHER2xCD63-Duo3 (bispecific antibody, part only; not given: HER2 arm, IgG1, V domains shown, part only)
VH: B1 VH
VL: B1 VL
B21: bsHER2xCD63-Duo3 with CD63 variant Y46 (bispecific antibody, part only; not given: HER2 arm (IgG1-153) VH and VL, V domains shown, part only)
VH: B1 VH with Y27H
VL: B1 VL
B22: bsCD63xb12-Duo3 with CD63 variant Y127 (bispecific antibody, part only; not given: b12 control arm VH and VL, V domains shown, part only)
VH: B1 VH with Y108H
VL: B1 VL
B23: bsHER2xCD63-Duo3 with CD63 variant Y79H (bispecific antibody, part only; not given: HER2 arm (IgG1-153) VH and VL, V domains shown, part only)
VH: B1 VH with Y60H
VL: B1 VL
B24: bsHER2xCD63-Duo3 with CD63 variant Y127 (bispecific antibody, part only; not given: HER2 arm (IgG1-153) VH and VL, V domains shown, part only)
VH: B1 VH with Y108H
VL: B1 VL
B25: bsHER2xCD63-Duo3 with CD63 variant G76H (bispecific antibody, part only; not given: HER2 arm (IgG1-153) VH and VL, V domains shown, part only)
VH: B1 VH with G57H
VL: B1 VL
B26: bsCD63N74Hxb12 (bispecific antibody, part only; not given: b12 control arm, constant regions, V domains shown, not shown: another chain or arm of the molecule; a dimerising Fc or GST)
VH: EVQLQQSGPELVKPGASVKMSCKASGYTFTSYVMHWVRQTPGQGLEWIGYITPYHDGTKYNEKFKGKATLTSDKSSSTAYMELSSLTSEDSAVYYCVGGDNYYYAMDYWGQGTSVTVSA
VL: NIMVTQSPSSLAVSAGEKVTMSCKSSQSVLYSSNQKNYLAWYQQKPGQSPKLLIYWASTRVSGVPDRFTGSGSGTDFTLTISRVQAEDLAVYYCHQYFSSFTFGSGTKLEIK

Target: CD63 on cells (human) (UniProt P08962)
Test: cell-based or functional assay

CD63 on cells (human), sequence (P08962 2-238): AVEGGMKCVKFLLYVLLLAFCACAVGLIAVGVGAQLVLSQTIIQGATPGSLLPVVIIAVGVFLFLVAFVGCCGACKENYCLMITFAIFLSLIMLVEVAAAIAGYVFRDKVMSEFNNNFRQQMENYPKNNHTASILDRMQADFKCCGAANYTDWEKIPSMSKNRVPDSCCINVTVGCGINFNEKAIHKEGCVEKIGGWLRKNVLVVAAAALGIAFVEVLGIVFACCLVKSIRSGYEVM

Binder | IC50 of cytotoxicity, Colo205 cells (CellTiter-GLO, 4 days) | IC50 of cytotoxicity, HCC1954 cells (CellTiter-GLO, 4 days) | IC50 of cytotoxicity, SK-OV-3 cells (CellTiter-GLO, 4 days) | lysosomal co-localization with LAMP1 in SK-OV-3 cells (confocal microscopy, 16 hours)
B1 | 2.61 µg/mL | 0.424 µg/mL | 0.815 µg/mL | 
B2 | 5.64 µg/mL | 0.9 µg/mL | 1.37 µg/mL | 
B3 | 1.42 µg/mL | 10 µg/mL | 3.06 µg/mL | 
B4 | 0.567 µg/mL | 0.018 µg/mL | 0.047 µg/mL | 
B5 | 10 µg/mL | 0.92 µg/mL | 1.72 µg/mL | 10 fold lower
B6 | 1.69 µg/mL | 0.013 µg/mL | 0.021 µg/mL | 
B7 | 3.41 µg/mL | 0.42 µg/mL | 0.93 µg/mL | 
B8 | 3.93 µg/mL | 1.35 µg/mL | 1.99 µg/mL | 
B9 | 10 µg/mL | 4.89 µg/mL | 3.8 µg/mL | 
B10 | 10 µg/mL | 1.55 µg/mL | 3.35 µg/mL | 10 fold lower
B11 | 10 µg/mL | 1.65 µg/mL | 1.4 µg/mL | 
B12 | 10 µg/mL | 10 µg/mL | 5.46 µg/mL | 10 fold lower
B13 | 2.23 µg/mL | 0.03 µg/mL | 0.115 µg/mL | 
B14 | 1.35 µg/mL | 0.017 µg/mL | 0.037 µg/mL | 
B15 | 1.4 µg/mL | 0.014 µg/mL | 0.028 µg/mL | 
B16 | 2.43 µg/mL | 0.753 µg/mL | 1.11 µg/mL | 
B17 | 2.25 µg/mL | 0.662 µg/mL | 1.13 µg/mL | 
B18 | 10 µg/mL | 0.073 µg/mL | 0.259 µg/mL | 
B19 | 0.587 µg/mL | 0.017 µg/mL | 0.048 µg/mL | 
B20 | 0.416 µg/mL | 0.009 µg/mL | 0.017 µg/mL | 
B21 | 0.754 µg/mL | 0.016 µg/mL | 0.045 µg/mL | 
B22 | 1.89 µg/mL | 0.664 µg/mL | 1.08 µg/mL | 
B23 | 0.432 µg/mL | 0.008 µg/mL | 0.021 µg/mL | 
B24 | 0.472 µg/mL | 0.017 µg/mL | 0.061 µg/mL | 
B25 | 10 µg/mL | 0.104 µg/mL | 0.351 µg/mL | 
B26 |  |  |  | 10 fold lower
